Measurements: patent publication US20180230213A1 (AVEO PHARMACEUTICALS, published 2018)

What was measured:
[1] = target: T1, recombinant human Notch3 extracellular domain (containing EGF like domains 1-11) Fc fusion protein (human, UniProt Q9UM47 40-467); test: SPR Biacore T100, 4F11 captured by anti-mouse IgG, rhNotch3-Fc analyte, 25 C
T1 construct: domain: EGF like domains 1-11; also called rhNotch3-Fc; rhNotch3
T1 sequence (looked up): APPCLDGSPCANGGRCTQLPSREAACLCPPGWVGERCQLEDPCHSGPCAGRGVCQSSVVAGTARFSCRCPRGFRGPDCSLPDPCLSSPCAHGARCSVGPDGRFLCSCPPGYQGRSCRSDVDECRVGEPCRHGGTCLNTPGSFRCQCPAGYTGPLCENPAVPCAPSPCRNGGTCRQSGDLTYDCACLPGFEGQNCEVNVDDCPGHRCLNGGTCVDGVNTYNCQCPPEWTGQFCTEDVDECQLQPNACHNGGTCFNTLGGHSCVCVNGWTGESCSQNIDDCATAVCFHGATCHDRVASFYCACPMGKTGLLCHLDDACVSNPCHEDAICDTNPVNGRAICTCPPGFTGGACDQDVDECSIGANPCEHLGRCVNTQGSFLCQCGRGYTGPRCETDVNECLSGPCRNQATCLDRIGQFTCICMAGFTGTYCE
Method: The binding affinity and kinetics of binding of antibody 4F11 to recombinant human Notch3 extracellular domain (containing EGF like domains 1-11) Fc fusion protein (rhNotch3-Fc (R&D Systems, Inc., Minneapolis, Minn.)) were measured by surface plasmon resonance using a Biacore® T100 instrument (GE Healthcare, Piscataway, N.J.).
Rabbit anti-mouse IgGs (GE Healthcare) were immobilized on carboxymethylated dextran CM4 sensor chips (GE Healthcare) by amine coupling, according to a standard protocol. Analyses were performed at 25° C. and 37° C. using PBS containing 0.05% surfactant P20 as running buffer. The antibody was captured in individual flow cells at a flow rate of 10 μl/minute. Injection time was varied for each antibody to yield an Rmax between 30 and 60 resonance units (RU). Buffer or rhNotch3-Fc diluted in running buffer was injected sequentially over a reference surface (no antibody captured) and the active surface (antibody to be tested) for 240 seconds at 60 μl/minute. The dissociation phase was monitored for up to 1500 seconds. The surface was then regenerated with two 60-second injections of 10 mM Glycine-HCl, pH 2.25, at a flow rate of 30 μl/minute. The rhNotch3-Fc concentration range tested was 100 nM to 3.125 nM (2 fold dilution).
Kinetic parameters were determined using the kinetic function of the BIAevaluation software (GE Healthcare) with double reference subtraction. Kinetic parameters for the antibody, kₐ (association rate constant), kd (dissociation rate constant) and KD (equilibrium dissociation constant) were determined.

rhNotch1-Fc = target: T2, rhNotch1-Fc (human, UniProt P46531 19-526); test: BLI (Octet QK): rhNotch1-Fc loaded on anti-human-Fc sensors, then antibody 4F11 in solution
T2 construct: also called human Notch1 protein; R&D Cat. No. 3647-TK-050
Method: Antibody 4F11 was tested for binding to human Notch1, human Notch2, or human Notch3 proteins. Binding measurements were made by biolayer interferometry (BLI), using a FortéBio Octet® QK instrument (FortéBio, Menlo Park, Calif.). Anti-human-Fc sensors were soaked in PBS containing 1 mg/ml BSA for five minutes prior to binding of antibodies. Then the following proteins (400 nM, in PBS containing 1 mg/ml BSA) were allowed to bind to the sensors: rhNotch1-Fc (R&D Systems, Minneapolis, Minn.; Cat. No. 3647-TK-050), rhNotch2-Fc (R&D Cat. No. 3735-NT-050), rhNotch3-Fc (R&D Cat. No. 1559-NT-050), or rmNotch3-Fc (R&D Cat. No. 1308-NT-050). Notch protein bound sensors were immersed in antibody solution (50 μg/ml) to allow binding of antibody to the Notch protein. Binding was detected by shifts in the interference pattern.

[2] = target: T3, human Notch4 expressed on the surface of CHO cells (human, UniProt Q99466 24-2003); test: electrochemiluminescence (Meso Scale Discovery) on transfected CHO cells
T3 construct: whole, on cells
Method: (§1) To determine specificity of binding to cell surface Notch proteins, antibody 4F11 was tested for binding to human Notch1, human Notch2, human Notch3 and human Notch4 expressed on the surface of CHO cells using electrochemiluminescence (Meso Scale Discovery). A CHO line lacking any human Notch protein was also produced for use as a negative control. Cells were grown under standard conditions (37° C., F12+10% FBS). For binding studies, cells were washed in PBS containing calcium and magnesium, and removed from the plate by treatment with Cell Dissociation Buffer (Life Technologies) for ten minutes at 37° C.
(§2) Cells were seeded at a density of 30,000 cells per well, in hybridoma media, instandard 96-well binding plates (Meso Scale Discovery, Cat. No. L15XA-6). Cells were incubated for one hour at 37° C. Antibodies or control IgG were added at 5 μg/ml, in 50 μl hybridoma media, and incubated for one hour at 37° C. The plates were washed twice with PBS containing 3% BSA. Binding of the antibodies to cell surface was detected using 2 μg/ml of MSD anti-mouse IgG secondary antibody (Meso Scale Discovery, Cat. No. R32AC-1) for one hour at 4° C. Plates were washed twice with PBS containing 3% BSA, and 150 μl of read buffer (Meso Scale Discovery Cat. No. R92TC-1) was added. The plates were analyzed on a Sector Imager 2400 instrument (Meso Scale Discovery).

[3] = target: T4, human Notch2 expressed on the surface of CHO cells (human, UniProt Q04721 26-2471); test: as above
T4 construct: whole, on cells
Method: as §1, §2

[4] = target: T5, human Notch1 expressed on the surface of CHO cells (human, UniProt P46531 19-2555); test: as above
T5 construct: whole, on cells
Method: as §1, §2

T4 sequence (Q04721 26-2471): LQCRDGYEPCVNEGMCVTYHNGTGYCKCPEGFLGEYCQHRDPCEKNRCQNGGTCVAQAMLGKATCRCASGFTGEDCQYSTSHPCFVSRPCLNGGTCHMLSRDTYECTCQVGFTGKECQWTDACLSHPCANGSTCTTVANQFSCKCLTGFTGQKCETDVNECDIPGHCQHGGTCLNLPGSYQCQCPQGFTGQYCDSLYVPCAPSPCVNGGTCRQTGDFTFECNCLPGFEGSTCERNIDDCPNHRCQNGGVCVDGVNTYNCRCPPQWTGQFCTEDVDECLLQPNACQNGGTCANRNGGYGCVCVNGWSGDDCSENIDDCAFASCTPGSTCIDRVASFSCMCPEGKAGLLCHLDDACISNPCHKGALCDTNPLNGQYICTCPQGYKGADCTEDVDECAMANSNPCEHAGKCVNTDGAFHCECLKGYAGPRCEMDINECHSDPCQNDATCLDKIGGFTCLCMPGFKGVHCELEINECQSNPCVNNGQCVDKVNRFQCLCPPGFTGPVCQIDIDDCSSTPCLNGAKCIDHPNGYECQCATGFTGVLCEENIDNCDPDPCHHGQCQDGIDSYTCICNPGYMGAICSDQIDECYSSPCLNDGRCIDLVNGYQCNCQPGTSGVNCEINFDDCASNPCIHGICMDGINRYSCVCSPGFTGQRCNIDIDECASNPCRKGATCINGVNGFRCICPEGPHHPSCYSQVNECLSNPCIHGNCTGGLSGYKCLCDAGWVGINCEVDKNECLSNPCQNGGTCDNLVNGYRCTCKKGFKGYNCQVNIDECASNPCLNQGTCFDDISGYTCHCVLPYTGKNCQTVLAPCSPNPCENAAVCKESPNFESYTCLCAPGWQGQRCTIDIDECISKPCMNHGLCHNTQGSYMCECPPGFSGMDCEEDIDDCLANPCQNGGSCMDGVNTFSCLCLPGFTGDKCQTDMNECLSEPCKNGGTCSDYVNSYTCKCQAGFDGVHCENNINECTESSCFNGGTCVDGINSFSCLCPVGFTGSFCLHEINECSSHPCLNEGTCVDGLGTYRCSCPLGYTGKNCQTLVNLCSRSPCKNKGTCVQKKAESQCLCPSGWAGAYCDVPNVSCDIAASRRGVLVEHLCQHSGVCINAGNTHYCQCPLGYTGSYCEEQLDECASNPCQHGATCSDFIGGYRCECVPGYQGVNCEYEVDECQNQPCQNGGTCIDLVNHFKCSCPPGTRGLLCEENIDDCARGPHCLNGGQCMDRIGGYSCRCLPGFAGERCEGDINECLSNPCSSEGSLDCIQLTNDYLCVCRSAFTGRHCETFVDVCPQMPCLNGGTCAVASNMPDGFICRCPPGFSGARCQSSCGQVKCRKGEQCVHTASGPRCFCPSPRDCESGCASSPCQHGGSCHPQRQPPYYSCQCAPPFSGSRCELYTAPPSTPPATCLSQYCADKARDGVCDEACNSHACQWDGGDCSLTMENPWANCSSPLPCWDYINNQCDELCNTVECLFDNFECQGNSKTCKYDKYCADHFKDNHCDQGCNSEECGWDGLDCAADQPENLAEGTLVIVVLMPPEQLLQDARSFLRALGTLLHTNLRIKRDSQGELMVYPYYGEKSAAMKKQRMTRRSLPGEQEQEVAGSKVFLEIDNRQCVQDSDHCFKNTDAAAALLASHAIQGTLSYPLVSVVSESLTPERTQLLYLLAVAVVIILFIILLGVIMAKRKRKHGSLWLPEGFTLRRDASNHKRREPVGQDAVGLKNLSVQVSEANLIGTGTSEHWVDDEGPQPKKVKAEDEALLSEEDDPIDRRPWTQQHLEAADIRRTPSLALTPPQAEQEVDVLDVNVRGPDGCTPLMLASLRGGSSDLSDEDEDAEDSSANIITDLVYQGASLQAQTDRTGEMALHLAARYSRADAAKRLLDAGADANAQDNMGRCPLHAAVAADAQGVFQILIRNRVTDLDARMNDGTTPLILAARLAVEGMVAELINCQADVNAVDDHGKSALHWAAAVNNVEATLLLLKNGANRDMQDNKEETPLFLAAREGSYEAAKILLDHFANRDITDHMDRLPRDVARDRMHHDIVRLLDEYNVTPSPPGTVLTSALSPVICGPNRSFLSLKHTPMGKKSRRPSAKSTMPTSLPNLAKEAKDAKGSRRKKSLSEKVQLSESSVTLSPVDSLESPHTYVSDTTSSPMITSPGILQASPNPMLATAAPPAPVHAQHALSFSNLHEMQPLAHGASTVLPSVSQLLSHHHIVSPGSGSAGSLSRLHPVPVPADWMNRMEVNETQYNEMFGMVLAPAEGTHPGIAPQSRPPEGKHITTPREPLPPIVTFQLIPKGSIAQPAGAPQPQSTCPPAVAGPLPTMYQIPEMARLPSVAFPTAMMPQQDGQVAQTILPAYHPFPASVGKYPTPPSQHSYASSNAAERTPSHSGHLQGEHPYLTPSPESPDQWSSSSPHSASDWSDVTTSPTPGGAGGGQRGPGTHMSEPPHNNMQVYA
T3 sequence (Q99466 24-2003): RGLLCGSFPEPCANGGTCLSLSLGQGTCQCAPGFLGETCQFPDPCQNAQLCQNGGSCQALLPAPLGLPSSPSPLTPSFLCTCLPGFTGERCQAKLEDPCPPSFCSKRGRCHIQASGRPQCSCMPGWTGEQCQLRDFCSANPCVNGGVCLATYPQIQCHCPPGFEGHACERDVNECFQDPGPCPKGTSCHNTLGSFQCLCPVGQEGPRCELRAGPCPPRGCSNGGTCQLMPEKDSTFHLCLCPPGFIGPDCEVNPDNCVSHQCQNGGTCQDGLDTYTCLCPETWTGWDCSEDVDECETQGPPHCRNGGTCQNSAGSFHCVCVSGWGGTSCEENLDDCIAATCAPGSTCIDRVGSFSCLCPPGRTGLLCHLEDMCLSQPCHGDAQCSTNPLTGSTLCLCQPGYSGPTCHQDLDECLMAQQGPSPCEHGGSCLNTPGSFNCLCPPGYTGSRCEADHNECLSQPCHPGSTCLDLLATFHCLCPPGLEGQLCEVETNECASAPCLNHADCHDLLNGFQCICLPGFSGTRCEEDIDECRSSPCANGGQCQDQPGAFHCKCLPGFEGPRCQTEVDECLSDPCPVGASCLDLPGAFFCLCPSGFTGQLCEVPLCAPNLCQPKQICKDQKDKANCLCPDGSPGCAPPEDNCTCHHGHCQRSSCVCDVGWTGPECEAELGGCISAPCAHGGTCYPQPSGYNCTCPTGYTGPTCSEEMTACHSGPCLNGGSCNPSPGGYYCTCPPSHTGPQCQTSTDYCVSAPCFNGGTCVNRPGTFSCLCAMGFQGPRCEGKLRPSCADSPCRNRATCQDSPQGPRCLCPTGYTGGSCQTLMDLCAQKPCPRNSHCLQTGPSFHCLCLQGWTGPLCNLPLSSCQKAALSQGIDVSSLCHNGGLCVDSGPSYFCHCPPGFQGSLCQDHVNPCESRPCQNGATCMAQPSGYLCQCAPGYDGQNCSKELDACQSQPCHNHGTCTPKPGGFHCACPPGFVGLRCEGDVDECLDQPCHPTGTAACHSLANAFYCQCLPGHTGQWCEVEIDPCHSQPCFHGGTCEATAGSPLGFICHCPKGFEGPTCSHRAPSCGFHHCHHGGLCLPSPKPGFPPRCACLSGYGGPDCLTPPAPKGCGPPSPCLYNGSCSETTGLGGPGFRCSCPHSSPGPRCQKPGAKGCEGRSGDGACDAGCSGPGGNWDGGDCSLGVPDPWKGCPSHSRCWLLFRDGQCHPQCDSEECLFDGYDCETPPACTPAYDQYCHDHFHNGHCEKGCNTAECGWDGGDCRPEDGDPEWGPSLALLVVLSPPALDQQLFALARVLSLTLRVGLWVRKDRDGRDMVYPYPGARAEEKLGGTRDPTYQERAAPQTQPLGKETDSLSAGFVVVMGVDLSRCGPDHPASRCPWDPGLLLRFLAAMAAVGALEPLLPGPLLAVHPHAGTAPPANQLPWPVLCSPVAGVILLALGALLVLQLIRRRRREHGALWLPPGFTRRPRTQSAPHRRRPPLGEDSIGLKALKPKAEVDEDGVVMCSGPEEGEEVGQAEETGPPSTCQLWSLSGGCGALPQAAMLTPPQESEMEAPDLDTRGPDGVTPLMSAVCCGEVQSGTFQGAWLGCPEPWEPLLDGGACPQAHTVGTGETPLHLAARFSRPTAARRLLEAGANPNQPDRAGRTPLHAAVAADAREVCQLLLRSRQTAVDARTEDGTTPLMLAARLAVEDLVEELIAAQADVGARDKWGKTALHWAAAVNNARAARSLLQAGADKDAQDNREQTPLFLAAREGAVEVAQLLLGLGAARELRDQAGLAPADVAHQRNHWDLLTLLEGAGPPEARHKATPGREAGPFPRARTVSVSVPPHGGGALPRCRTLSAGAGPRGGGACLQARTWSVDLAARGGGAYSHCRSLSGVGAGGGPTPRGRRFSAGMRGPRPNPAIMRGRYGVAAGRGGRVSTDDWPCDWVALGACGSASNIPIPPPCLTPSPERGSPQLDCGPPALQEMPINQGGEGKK

- Kd [1]: 0.823 nM
- koff [1]: 4.8e-05 s⁻¹
- kon [1]: 70000 M⁻¹ s⁻¹
- binding result (rhNotch1-Fc): no binding
- binding result [2]: no binding (tested: 5 µg/ml)
- binding result [3]: no binding (tested: 5 µg/ml)
- binding result [4]: no binding (tested: 5 µg/ml)
B1: antibody 4F11 (murine monoclonal anti-human Notch3) (antibody, mouse IgG1, kappa, V domains shown)
VH: EVQLVESGGGLVKPGGSLKLSCAASGFAFSSYDMSWVRQTPEKRLEWVAYISRGGGSTYYPDTVKGRFTISRDNAKNTLYLQMSSLKSEDTAMYYCGRHATTAYWYFDVWGAGTTVTVSS
VL: DVVMTQTPLSLPVSLGDQASISCRSSQSLVHTNGNTYLHWYLQKPGQSPKLLIYKVSNRFSGVPDRFSGSGSGTDFTLKISRVEAEDLGVYFCSQSTHVPWTFGGGTKLEIKR
notes: Mouse IgG1 kappa purified from hybridoma; also called mu4F11; murine 4F11
